From publication PMC8741920 come the findings set out here.

Assay [1] has as its target recombinant soluble human FcRn with β2-microglobulin (sFcRn) (human) (UniProt P55899). Put plainly: SPR; pH 6.0. Background: SPR reads the build-up and loss of mass on a sensor chip optically.
For assay [2] the target is unchanged. Nature of the assay: SPR; pH 7.4.

Chain of UniProt P55899 (P55899 24-297, chain 1 of 2): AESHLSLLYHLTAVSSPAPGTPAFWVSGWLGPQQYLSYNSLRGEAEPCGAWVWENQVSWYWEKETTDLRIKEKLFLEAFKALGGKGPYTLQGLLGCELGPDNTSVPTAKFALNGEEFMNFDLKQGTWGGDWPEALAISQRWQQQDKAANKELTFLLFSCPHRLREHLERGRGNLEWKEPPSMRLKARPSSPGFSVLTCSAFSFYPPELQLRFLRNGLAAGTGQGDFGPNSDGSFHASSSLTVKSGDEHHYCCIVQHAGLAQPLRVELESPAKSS
Chain of UniProt P55899 (partner, as listed by the source, chain 2 of 2): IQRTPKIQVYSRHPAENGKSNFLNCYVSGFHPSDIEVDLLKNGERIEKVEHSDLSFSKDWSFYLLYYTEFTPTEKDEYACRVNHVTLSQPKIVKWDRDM

On to “anti-biotin IgG1-MST-HN (from UniProt P01857)”, for which the values for the Kd in assay [1] and in assay [2] were 8 nM and 893 nM, respectively.
Consider “anti-biotin IgG1-WT (from UniProt P01857)”, for which, in assay [1], the Kd was 59.3 nM.

A word on the Kd: it is the equilibrium constant for the complex coming apart.
